Drawing on article PMC2365708, “Binding of MutS protein to oligonucleotides containing a methylated or an ethylated guanine residue, and correlation with mutation frequency”, this text covers Kd for five molecules.

This data set concerns the target T1, MutS (Escherichia coli, UniProt P23909 1-853).
T1 sequence: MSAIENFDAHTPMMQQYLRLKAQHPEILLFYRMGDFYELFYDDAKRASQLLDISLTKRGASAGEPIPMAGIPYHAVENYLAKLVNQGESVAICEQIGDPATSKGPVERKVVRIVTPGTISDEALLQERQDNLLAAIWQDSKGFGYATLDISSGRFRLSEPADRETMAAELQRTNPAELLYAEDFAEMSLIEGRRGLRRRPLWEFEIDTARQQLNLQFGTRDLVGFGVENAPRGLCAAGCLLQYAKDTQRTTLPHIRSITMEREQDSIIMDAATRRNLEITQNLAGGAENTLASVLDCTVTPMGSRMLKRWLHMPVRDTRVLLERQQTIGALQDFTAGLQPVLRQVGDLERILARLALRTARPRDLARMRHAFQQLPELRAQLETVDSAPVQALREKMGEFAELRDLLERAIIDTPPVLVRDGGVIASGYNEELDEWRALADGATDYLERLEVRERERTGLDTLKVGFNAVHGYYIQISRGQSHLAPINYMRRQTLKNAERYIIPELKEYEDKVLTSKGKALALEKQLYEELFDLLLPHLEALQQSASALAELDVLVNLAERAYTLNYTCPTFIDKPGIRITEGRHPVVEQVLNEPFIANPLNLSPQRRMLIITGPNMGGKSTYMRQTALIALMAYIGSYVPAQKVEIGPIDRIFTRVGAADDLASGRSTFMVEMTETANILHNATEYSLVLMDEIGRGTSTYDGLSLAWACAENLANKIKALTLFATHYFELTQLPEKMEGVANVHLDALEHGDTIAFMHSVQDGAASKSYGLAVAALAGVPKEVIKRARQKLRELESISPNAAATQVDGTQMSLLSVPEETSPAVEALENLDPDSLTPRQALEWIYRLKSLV
The experiment in a line: EMSA; 5 mM Mg2+; 20 pmol unlabeled GC duplex; 20 mM Tris-HCl pH 7.6, 50 mM KCl, 5 mM MgCl2, 1 mM DTT, 0.05 mg/ml BSA, 37 °C 15 min, 20 μl, 2 pmol labeled duplex, 20 pmol unlabeled GC duplex, 5% native PAGE. Particulars: protein: recombinant, tags: His6, chain copies: 2, label: 5'-32P (KN-2 or KN-3 strand).

B1: O6-EtG:C duplex (dsDNA)
DNA 1: GGTCGCTGGGGAATGGGAGTGGCCACGGCG
DNA 2: CGCCGTGGCCACTCCCATTCCCCAGCGACC
modifications: O6-ethylguanine opposite C
B1: under “O6-EtG:C pair”, the Kd – broadly, the constant that tells how readily two partners part at equilibrium – turned out to be 220 nM.

B2: O6-MeG:C duplex (dsDNA)
DNA 1: GGTCGCTGGGGAATGGGAGTGGCCACGGCG
DNA 2: CGCCGTGGCCACTCCCATTCCCCAGCGACC
modifications: O6-methylguanine opposite C
As to B2, the Kd (O6-MeG:C pair) was 220 nM.

B3: O6-EtG:T duplex (dsDNA)
DNA 1: GGTCGCTGGGGAATGGGAGTGGCCACGGCG
DNA 2: CGCCGTGGCCACTCTCATTCCCCAGCGACC
modifications: O6-ethylguanine opposite T
With B3, the Kd (O6-EtG:T pair) amounted to 210 nM.

B4: G:T duplex (dsDNA)
DNA 1: GGTCGCTGGGGAATGGGAGTGGCCACGGCG
DNA 2: CGCCGTGGCCACTCTCATTCCCCAGCGACC
Regarding B4, the Kd (G:T mismatch) was 75 nM.

B5: O6-MeG:T duplex (dsDNA)
DNA 1: GGTCGCTGGGGAATGGGAGTGGCCACGGCG
DNA 2: CGCCGTGGCCACTCTCATTCCCCAGCGACC
modifications: O6-methylguanine opposite T
With B5, the Kd (O6-MeG:T pair) is 120 nM.
